Article PMC6706451, “Crystal structure and substrate-induced activation of ADAMTS13” (Nature Communications, 2019)

Experiments:
ADAMTS13 = biological target: T1, ADAMTS13 (human, UniProt Q76LX8 75-1427); assay: ELISA; plate binding: 100 nM VWF96 or variant adsorbed on 96-well plates (50 mM sodium bicarbonate pH 9.6, overnight, 4 °C); 0-600 nM ADAMTS13 in PBS/1% BSA/80 mM EDTA, room temperature, 1.5 h (legend: 1 h); detected with biotinylated anti-ADAMTS13 TSP2-4 polyclonal antibody; one-site fit; apparent KD; conditions: one partner purified
T1 construct: ADAMTS13, recombinant; holds TSP2-4 (detected with an anti-ADAMTS13 TSP2-4 polyclonal antibody); The introduction says the short propeptide is removed before secretion; also called recombinant ADAMTS13
T1 sequence (looked up): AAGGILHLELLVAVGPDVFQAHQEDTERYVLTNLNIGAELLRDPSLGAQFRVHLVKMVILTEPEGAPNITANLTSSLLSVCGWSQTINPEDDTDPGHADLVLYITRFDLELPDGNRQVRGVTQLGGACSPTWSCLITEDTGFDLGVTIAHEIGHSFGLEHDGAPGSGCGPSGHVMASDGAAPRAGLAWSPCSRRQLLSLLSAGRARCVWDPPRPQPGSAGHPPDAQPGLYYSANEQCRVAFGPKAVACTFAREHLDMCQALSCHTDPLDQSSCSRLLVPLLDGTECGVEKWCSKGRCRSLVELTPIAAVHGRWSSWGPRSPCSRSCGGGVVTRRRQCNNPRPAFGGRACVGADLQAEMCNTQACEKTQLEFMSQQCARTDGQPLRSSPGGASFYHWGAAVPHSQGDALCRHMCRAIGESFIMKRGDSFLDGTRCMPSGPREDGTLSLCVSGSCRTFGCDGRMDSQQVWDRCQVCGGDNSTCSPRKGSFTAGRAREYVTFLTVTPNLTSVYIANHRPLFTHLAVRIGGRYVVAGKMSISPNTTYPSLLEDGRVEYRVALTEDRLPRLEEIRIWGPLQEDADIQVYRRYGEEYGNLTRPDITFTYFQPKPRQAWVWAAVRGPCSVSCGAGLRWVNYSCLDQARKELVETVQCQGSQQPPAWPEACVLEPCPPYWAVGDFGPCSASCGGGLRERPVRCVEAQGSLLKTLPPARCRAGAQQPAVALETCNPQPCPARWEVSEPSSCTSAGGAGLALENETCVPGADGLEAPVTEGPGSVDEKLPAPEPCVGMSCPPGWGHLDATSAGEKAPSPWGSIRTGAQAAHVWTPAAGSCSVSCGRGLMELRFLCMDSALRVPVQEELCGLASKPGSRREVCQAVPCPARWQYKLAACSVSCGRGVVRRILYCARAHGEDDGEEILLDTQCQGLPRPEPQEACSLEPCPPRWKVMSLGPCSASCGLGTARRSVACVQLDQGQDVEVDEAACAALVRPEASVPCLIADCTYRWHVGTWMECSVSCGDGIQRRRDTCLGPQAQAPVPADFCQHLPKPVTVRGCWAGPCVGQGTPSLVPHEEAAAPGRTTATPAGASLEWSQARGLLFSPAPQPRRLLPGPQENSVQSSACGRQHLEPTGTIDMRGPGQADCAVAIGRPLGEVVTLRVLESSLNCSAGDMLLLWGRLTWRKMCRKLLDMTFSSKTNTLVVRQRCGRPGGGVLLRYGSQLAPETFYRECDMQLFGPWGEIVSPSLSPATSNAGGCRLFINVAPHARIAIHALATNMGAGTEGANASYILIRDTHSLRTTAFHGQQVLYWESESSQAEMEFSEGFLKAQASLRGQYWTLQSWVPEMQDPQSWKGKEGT

VWF96-MP = VWF96-MP (human, UniProt P04275 1573-1668, L1603N); assay: ELISA
VWF96-Spacer = VWF96-Spacer (human, UniProt P04275 1573-1668, L1664T | V1665N | L1666Q); assay: ELISA
ADAMTS13 MDTCS(E225Q) = biological target: T2, ADAMTS13 MDTCS(E225Q) (human, UniProt Q76LX8 78-682, E225Q, N-linked glycans at Asn142, Asn146, Asn552, Asn579, Asn614, Asn667 and an O-linked glycan on Ser399 (seen in the structure)); assay: ITC; 27 μM MDTCS(E225Q) in the cell, injections of 279 μM tag-free VWF73; 20 mM HEPES pH 7.5, 150 mM NaCl, 5 mM CaCl2; 25 °C; mean of four experiments; conditions: both partners purified
T2 construct: Drosophila BiP signal cleaved off to give the native N terminus Gly78; Vector pMT-BiP-PURO; also called MDTCS(E225Q) active-site mutant; not shown: 6xHis, C-terminal, kept
T2 sequence (looked up): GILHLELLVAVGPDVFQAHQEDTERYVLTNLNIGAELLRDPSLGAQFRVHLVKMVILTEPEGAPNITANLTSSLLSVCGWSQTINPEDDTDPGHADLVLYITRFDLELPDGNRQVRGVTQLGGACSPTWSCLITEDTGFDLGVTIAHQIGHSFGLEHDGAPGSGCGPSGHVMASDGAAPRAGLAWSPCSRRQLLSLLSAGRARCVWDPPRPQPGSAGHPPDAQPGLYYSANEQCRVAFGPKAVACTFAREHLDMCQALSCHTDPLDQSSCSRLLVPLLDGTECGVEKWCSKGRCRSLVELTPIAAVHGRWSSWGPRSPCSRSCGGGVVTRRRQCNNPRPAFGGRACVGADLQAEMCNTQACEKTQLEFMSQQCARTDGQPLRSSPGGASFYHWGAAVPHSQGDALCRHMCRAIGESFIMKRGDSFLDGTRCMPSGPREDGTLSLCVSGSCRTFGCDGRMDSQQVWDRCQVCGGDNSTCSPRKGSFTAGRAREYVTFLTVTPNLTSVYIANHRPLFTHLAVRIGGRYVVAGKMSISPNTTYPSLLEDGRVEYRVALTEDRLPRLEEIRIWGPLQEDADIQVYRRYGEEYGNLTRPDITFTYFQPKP

B1: VWF87(ΔSpacer) (domain or fragment)
chain: GNRTNTGLALRYLSDHSFLVSQGDREQAPNLVYMVTGNPASDEIKRLPGDIQVVPIGVGPNANVQELERIGWPNAPILIQDFETLPR
notes: von Willebrand factor, A2 domain fragment: VWF96 (Gly1573-Arg1668) with residues Glu1660-Arg1668 deleted, 87 amino acids; Variant of the VWF96 vector; the C-terminal HSV-6xHis tag follows residue 1659; source: E. coli BL21 (DE3), purified (Ni2+ HiTrap Chelating HP, Capto Q ImpRes); not shown: 6xHis-SUMO, N-terminal, kept; HSV-6xHis, C-terminal, kept
Kd (ADAMTS13): 475 nM

B2: VWF96 (VWF A2 domain fragment Gly1573-Arg1668 with N-terminal 6xHis-SUMO tag and C-terminal HSV-6xHis tag) (domain or fragment)
chain: GNRTNTGLALRYLSDHSFLVSQGDREQAPNLVYMVTGNPASDEIKRLPGDIQVVPIGVGPNANVQELERIGWPNAPILIQDFETLPREAPDLVLQR
notes: von Willebrand factor, A2 domain fragment, residues Gly1573-Arg1668 (96 amino acids); SUMO tag is a derivative of yeast Smt3 (13 kDa, Invitrogen); Vector pET25b(+); About 32 kDa with tags; also called wild-type VWF96; source: E. coli BL21 (DE3), purified (Ni2+ HiTrap Chelating HP, Capto Q ImpRes); not shown: 6xHis-SUMO, N-terminal, kept; HSV-6xHis, C-terminal, kept
Kd (ADAMTS13): 40 nM

B3: VWF96-Cys (domain or fragment, human, UniProt P04275 1573-1668, looked up)
chain: GNRTNTGLALRYLSDHSFLVSQGDREQAPNLVYMVTGNPASDEIKRLPGDIQVVPIGVGPNANVQELERQGYPNSPQQQQDFETLPREAPDLVLQR
notes: Variant of the VWF96 vector; source: E. coli BL21 (DE3), purified (Ni2+ HiTrap Chelating HP, Capto Q ImpRes); not shown: 6xHis-SUMO, N-terminal, kept; HSV-6xHis, C-terminal, kept
Kd (ADAMTS13): 632 nM

B4: VWF96-Dis (domain or fragment, human, UniProt P04275 1573-1668, looked up)
chain: GNRTNTGLALRYLSDHSFLVSQGDREQAPNLVYMVTGNPASAEQEELPGTIQVVPIGVGPNANVQELERIGWPNAPILIQDFETLPREAPDLVLQR
notes: as for B3
Kd (ADAMTS13): 615 nM

B5: ADAMTS13 (enzyme)
chain: AAGGILHLELLVAVGPDVFQAHQEDTERYVLTNLNIGAELLRDPSLGAQFRVHLVKMVILTEPEGAPNITANLTSSLLSVCGWSQTINPEDDTDPGHADLVLYITRFDLELPDGNRQVRGVTQLGGACSPTWSCLITEDTGFDLGVTIAHEIGHSFGLEHDGAPGSGCGPSGHVMASDGAAPRAGLAWSPCSRRQLLSLLSAGRARCVWDPPRPQPGSAGHPPDAQPGLYYSANEQCRVAFGPKAVACTFAREHLDMCQALSCHTDPLDQSSCSRLLVPLLDGTECGVEKWCSKGRCRSLVELTPIAAVHGRWSSWGPRSPCSRSCGGGVVTRRRQCNNPRPAFGGRACVGADLQAEMCNTQACEKTQLEFMSQQCARTDGQPLRSSPGGASFYHWGAAVPHSQGDALCRHMCRAIGESFIMKRGDSFLDGTRCMPSGPREDGTLSLCVSGSCRTFGCDGRMDSQQVWDRCQVCGGDNSTCSPRKGSFTAGRAREYVTFLTVTPNLTSVYIANHRPLFTHLAVRIGGRYVVAGKMSISPNTTYPSLLEDGRVEYRVALTEDRLPRLEEIRIWGPLQEDADIQVYRRYGEEYGNLTRPDITFTYFQPKPRQAWVWAAVRGPCSVSCGAGLRWVNYSCLDQARKELVETVQCQGSQQPPAWPEACVLEPCPPYWAVGDFGPCSASCGGGLRERPVRCVEAQGSLLKTLPPARCRAGAQQPAVALETCNPQPCPARWEVSEPSSCTSAGGAGLALENETCVPGADGLEAPVTEGPGSVDEKLPAPEPCVGMSCPPGWGHLDATSAGEKAPSPWGSIRTGAQAAHVWTPAAGSCSVSCGRGLMELRFLCMDSALRVPVQEELCGLASKPGSRREVCQAVPCPARWQYKLAACSVSCGRGVVRRILYCARAHGEDDGEEILLDTQCQGLPRPEPQEACSLEPCPPRWKVMSLGPCSASCGLGTARRSVACVQLDQGQDVEVDEAACAALVRPEASVPCLIADCTYRWHVGTWMECSVSCGDGIQRRRDTCLGPQAQAPVPADFCQHLPKPVTVRGCWAGPCVGQGTPSLVPHEEAAAPGRTTATPAGASLEWSQARGLLFSPAPQPRRLLPGPQENSVQSSACGRQHLEPTGTIDMRGPGQADCAVAIGRPLGEVVTLRVLESSLNCSAGDMLLLWGRLTWRKMCRKLLDMTFSSKTNTLVVRQRCGRPGGGVLLRYGSQLAPETFYRECDMQLFGPWGEIVSPSLSPATSNAGGCRLFINVAPHARIAIHALATNMGAGTEGANASYILIRDTHSLRTTAFHGQQVLYWESESSQAEMEFSEGFLKAQASLRGQYWTLQSWVPEMQDPQSWKGKEGT
Kd (VWF96-MP): 65 nM | Kd (VWF96-Spacer): 241 nM

B6: VWF73 (tag-free VWF A2 domain fragment Asp1596-Arg1668) (domain or fragment)
chain: DREQAPNLVYMVTGNPASDEIKRLPGDIQVVPIGVGPNANVQELERIGWPNAPILIQDFETLPREAPDLVLQR
notes: von Willebrand factor, human, A2 domain fragment, residues Asp1596-Arg1668 (73 amino acids); Vector pET-SUMO; also called tag-free VWF73; source: E. coli One Shot BL21 Star (DE3), purified as VWF96; His-SUMO tag removed with SUMO protease-1, passed over Ni2+ column; not shown: 6xHis-SUMO, N-terminal, cleaved
Kd (ADAMTS13 MDTCS(E225Q)): 450 nM
